Ka, dH and stoichiometry N data for eight substances are collected here from paper PMC8063739.

The target of the assay is 11th type II cohesin module of the primary scaffoldin ScaA1 of B. cellulosolvens (BcCohScaA1_(11)) (Bacteroides (Pseudobacteroides) cellulosolvens) (UniProt Q9FDJ9). Kind of assay: ITC; 308 K; Doc constructs in the cell titrated with 28 injections of 10 μl BcCohScaA1_(11); single-site model.
UniProt Q9FDJ9, sequence (Q9FDJ9 entry or part of it): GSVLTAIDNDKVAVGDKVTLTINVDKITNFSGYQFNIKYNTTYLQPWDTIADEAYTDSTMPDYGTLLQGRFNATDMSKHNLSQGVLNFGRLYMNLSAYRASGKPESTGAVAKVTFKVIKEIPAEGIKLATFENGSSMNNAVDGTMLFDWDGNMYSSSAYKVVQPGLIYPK
With “TrxA-BcDocCel48 mutant N16A/N49A (domain or fragment)”, the Ka worked out at 136000 M⁻¹, the dH is -14.1 kcal/mol and the stoichiometry N turned out to be 0.99.
Taken in the same sequence, the figures for “TrxA-BcDocCel48 mutant Q25A/Q58A (domain or fragment)” were 1.35e+06 M⁻¹, -8.86 kcal/mol and 0.99.
Consider “TrxA-BcDocCel48 mutant M1 (M17S/A18D) (domain or fragment)”, for which the Ka worked out at 1.11e+07 M⁻¹, the dH was -16 kcal/mol and the stoichiometry N amounted to 0.98.
Taken in the same sequence, the figures for “TrxA-BcDocCel48 mutant M21A/I54A (domain or fragment)” were 1.2e+06 M⁻¹, -9.3 kcal/mol and 1.
In the case of “TrxA-BcDocCel48 mutant M1 + F60A (domain or fragment)”, the Ka came to 58400 M⁻¹, the dH is -60.9 kcal/mol and the stoichiometry N stood at 1.01.
For the substance “Wild-type BcDocCel48 fused to TrxA (TrxA-BcDocCel48) (domain or fragment)”, the Ka is 3.31e+07 M⁻¹, the dH is -15.2 kcal/mol and the stoichiometry N was 0.98.
For “TrxA-BcDocCel48 mutant M2 + F27A (domain or fragment)”, the Ka came to 445000 M⁻¹, the dH was -13.2 kcal/mol and the stoichiometry N was 1.01.
In the case of “TrxA-BcDocCel48 mutant M2 (M50S/A51D) (domain or fragment)”, the Ka is 1.41e+06 M⁻¹, the dH was -17.7 kcal/mol and the stoichiometry N was 0.99.
